This passage reports Kd, koff and kon results from patent publication US20260234254A1 (APTEVO RESEARCH AND DEVELOPMENT, published 2026).

The target of the assay is T1, recombinant monomeric CD123 ectodomain (ECD) with an affinity tag on the C-terminus (UniProt P26951 19-305).
T1 construct: extracellular domain; also called CD123 ECD; extracellular domain of CD123
T1 sequence (looked up): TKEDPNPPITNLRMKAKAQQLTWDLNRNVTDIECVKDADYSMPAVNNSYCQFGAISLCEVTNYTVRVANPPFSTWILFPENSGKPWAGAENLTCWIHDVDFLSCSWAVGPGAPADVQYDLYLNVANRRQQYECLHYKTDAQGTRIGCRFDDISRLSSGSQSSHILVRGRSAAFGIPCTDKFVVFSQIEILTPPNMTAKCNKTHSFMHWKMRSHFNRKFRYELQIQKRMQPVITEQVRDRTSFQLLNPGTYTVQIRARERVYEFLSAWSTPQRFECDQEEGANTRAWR
Briefly: SPR (Biacore T200), bispecific captured by anti-human Fc F(ab')2, CD123 ECD 3-48 nM as analyte, 25 °C, 1:1 model. On the technique in general: Surface plasmon resonance follows binding to a sensor surface in real time, without labels.

Procedure: SPR binding studies of bispecific molecules to recombinant monomeric CD123 ectodomain (ECD) were conducted at 25° C. in HBS-EP+ buffer. […] The bispecific molecules at 200 nM in HBS-EP+ buffer were captured by the immobilized anti-Fc F(ab′)2 fragment at a flow rate of 30 μL/min for 120 sec to reach a stable 2000 RU response. […] Optimal regeneration was achieved by one injection of 10 mM glycine (pH 1.7) at a flow rate of 30 μL/min for 15 sec followed by one injection of 50 mM NaOH at 30 μL/min for 15 sec. A two minute stabilization with HBS-EP+ buffer was completed before the subsequent run.
Sensorgrams obtained from kinetic SPR measurements were analyzed by the double subtraction method. The signal from the reference flow cell was subtracted from the analyte binding response obtained from flow cells with immobilized or captured ligands. Buffer reference responses were then averaged from multiple injections. […] All sensorgrams were fitted using a simple one-to-one binding model.

B1: OMT1 VHVL x TSC456 scFv-Fc-scFv TRI129 (bispecific antibody)
chain: EVQLLESGGGLVQPGGSLRLSCAASGFTFSSYGMSWVRQAPGKGLEGVSAISGSGGSTYYADSVKGRFTISRDNSKNTLYLQMNSLRAEDTAVYYCAKEKLRYFDWLSDAFDIWGQGTMVTVSSGGGGSGGGGSGGGGSGGGGSDIVMTQSPDSLAVSLGERATINCKSSHSVLYSSNNKNYLAWYQQKPGQPPKLLIYWASTRESGVPDRFSGSGSGTDFTLTISSLQAEDVAVYYCQQYYSTPPTTFGGGTKVEIKSSSEPKSSDKTHTCPPCPAPEAAGAPSVFLFPPKPKDTLMISRTPEVTCVVVDVSHEDPEVKFNWYVDGVEVHNAKTKPREEQYNSTYRVVSVLTVLHQDWLNGKEYKCAVSNKALPAPIEKTISKAKGQPREPQVYTLPPSRDELTKNQVSLTCLVKGFYPSDIAVEWESNGQPENNYKTTPPVLDSDGSFFLYSKLTVDKSRWQQGNVFSCSVMHEALHNHYTQKSLSLSPGSGGGGSGGGGSGGGGSPSQVQLVQSGPEVKKPGSSVKVSCKASGYTFSRSTMHWVRQAPGQGLEWIGYINPSSAYTNYNQKFKDRVTITADKSTSTAYMELSSLRSEDTAVYYCARPQVHYDYNGFPYWGQGTLVTVSSGGGGSGGGGSGGGGSGGGGSDIQMTQSPSTLSASVGDRVTMTCSASSSVSYMNWYQQKPGKAPKRWIYDSSKLASGVPSRFSGSGSGTDYTLTISSLQPDDFATYYCQQWSRNPPTFGGGTKVEIKRS
notes: Single-chain scFv-Fc-scFv, anti-CD123 (OMT1, VH-VL) x anti-CD3ε (TSC456)
One may read the Kd as the free concentration of one partner at which half of the binding sites on the other are occupied at equilibrium, for simple one-to-one binding. What is called koff is a measure of how fast the partners let go of each other. As usually defined, the kon is the rate constant with which the complex forms. Take B1: the Kd worked out at 11.4 nM, the koff came to 0.00205 s⁻¹ and the kon was determined as 179000 M⁻¹ s⁻¹.
